Source: publication PMC7617797, “The phosphorylated trimeric SOSS1 complex and RNA polymerase II trigger liquid-liquid phase separation at double-strand breaks”

Tests used:
Assay in all cases: EMSA; EMSA: 25 mM Tris-HCl pH 7.5, 1 mM DTT, 5 mM MgCl2, 100 mM NaCl, 20 min at 37 C; 10 nM substrate; protein 22-167 nM (RPA 5-40 nM); 7.5% native PAGE, 0.5x TBE, 4
[1] = target: RPA (UniProt P27694;P15927;P35244 1-616;1-270;1-121); conditions: protein: recombinant; copies: 1;1;1; label: 5' Cy3; single strand
Sequence of RPA (P27694 whole entry, chain 1 of 3): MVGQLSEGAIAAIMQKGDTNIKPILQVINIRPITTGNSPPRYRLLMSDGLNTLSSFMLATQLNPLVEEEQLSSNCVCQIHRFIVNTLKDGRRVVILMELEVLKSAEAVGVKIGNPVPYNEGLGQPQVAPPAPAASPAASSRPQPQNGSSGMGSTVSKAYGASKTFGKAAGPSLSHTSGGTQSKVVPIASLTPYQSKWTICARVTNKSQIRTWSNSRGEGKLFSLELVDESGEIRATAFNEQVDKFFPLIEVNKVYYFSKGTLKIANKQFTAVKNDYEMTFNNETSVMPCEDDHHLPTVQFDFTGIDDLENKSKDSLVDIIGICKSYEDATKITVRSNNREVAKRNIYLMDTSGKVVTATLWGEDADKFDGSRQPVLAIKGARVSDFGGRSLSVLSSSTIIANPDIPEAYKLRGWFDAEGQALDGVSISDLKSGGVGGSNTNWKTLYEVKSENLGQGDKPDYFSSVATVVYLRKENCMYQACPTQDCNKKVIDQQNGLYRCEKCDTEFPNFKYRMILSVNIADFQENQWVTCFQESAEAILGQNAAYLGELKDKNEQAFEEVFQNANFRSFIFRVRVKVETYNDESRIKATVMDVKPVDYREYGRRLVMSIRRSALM
Sequence of RPA (P15927 whole entry, chain 2 of 3): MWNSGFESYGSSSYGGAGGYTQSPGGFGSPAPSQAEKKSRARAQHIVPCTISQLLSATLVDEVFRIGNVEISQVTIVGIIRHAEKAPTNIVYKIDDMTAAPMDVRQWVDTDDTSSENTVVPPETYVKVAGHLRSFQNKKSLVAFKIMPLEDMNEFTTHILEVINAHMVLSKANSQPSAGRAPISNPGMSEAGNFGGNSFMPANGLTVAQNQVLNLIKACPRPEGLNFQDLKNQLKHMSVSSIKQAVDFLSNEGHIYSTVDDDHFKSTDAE
Sequence of RPA (P35244 whole entry, chain 3 of 3): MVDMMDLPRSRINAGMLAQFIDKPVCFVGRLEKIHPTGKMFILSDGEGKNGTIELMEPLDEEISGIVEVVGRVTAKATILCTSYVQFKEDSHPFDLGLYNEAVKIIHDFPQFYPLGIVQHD

[2] = target: hSSB1 (Homo sapiens, UniProt Q9BQ15 1-211); conditions: protein: recombinant, tags: His6 (2BT)
Sequence of hSSB1 (Q9BQ15 whole entry): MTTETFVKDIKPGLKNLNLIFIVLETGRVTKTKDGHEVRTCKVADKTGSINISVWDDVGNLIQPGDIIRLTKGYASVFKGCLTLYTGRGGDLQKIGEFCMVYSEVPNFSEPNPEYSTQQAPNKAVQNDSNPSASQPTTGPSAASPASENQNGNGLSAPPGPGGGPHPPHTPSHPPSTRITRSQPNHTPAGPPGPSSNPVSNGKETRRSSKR

[3] = target: INTS3 (UniProt Q68E01 1-1043); conditions: protein: recombinant; tags: His6-TEV (438B); label: 5' Cy3; single strand
Sequence of INTS3 (Q68E01 whole entry): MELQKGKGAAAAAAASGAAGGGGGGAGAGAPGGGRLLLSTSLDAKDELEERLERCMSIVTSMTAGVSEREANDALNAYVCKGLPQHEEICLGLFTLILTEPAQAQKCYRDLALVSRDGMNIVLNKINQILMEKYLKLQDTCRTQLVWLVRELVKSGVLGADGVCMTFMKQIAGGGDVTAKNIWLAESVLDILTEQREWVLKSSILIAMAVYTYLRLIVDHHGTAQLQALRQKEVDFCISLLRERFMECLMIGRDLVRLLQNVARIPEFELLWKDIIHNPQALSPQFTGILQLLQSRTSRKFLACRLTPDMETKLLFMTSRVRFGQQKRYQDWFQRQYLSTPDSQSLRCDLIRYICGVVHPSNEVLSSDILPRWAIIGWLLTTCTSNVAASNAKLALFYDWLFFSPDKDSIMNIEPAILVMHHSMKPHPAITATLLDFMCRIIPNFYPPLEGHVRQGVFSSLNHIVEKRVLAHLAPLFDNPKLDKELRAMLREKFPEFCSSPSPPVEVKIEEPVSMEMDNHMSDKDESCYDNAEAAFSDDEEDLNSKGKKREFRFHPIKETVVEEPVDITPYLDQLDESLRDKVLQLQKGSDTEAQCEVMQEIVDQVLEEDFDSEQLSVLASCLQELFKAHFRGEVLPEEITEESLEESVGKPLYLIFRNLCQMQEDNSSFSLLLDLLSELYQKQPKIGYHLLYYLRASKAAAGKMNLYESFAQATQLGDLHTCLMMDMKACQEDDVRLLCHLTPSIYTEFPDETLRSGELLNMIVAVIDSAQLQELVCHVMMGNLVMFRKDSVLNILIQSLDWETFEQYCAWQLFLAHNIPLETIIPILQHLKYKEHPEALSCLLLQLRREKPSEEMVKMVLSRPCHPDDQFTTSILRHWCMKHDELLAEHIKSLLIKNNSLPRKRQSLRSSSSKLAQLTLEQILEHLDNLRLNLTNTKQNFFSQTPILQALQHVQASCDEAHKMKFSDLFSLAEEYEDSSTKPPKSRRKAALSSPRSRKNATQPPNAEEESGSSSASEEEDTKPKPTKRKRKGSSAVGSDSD

Binder	binding result [1]	binding result ([2]; label: 5' Cy3, single strand)	binding result [3]	binding result ([2]; label: 5' Cy3 on strand 1, 21-nt RNA paired to strand 1 in a 21-nt bubble, 20-bp flanking duplexes)	binding result ([2]; label: 5' Cy3 on strand 1, blunt, 21-nt central bubble)
GTGCCTTGCTAGGACATCTTT (ssDNA) [21-mer ssDNA (pRMS630)]	binds	no binding	–	–	–
61-mer ssDNA (ssDNA) DNA: GACGCTGCCGAATTCTACCAGTGCCTTGCTAGGACATCTTTGCCCACCTGCAGGTTCACCC	binds	binds	no binding	–	–
R-loop (mixed) DNA 1: GACGCTGCCGAATTCTACCAGTGCCTTGCTAGGACATCTTTGCCCACCTGCAGGTTCACCC DNA 2: GGGTGAACCTGCAGGTGGGCGGCTGCTCATCGTAGGTTAGTTGGTAGAATTCGGCAGCGTC RNA: AAAGAUGUCCUAGCAAGGCAC	–	–	–	binds	–
bubble DNA (dsDNA) DNA 1: GACGCTGCCGAATTCTACCAGTGCCTTGCTAGGACATCTTTGCCCACCTGCAGGTTCACCC DNA 2: GGGTGAACCTGCAGGTGGGCGGCTGCTCATCGTAGGTTAGTTGGTAGAATTCGGCAGCGTC	–	–	–	–	no binding
